Source: publication PMC7954794, “Protein context shapes the specificity of SH3 domain-mediated interactions in vivo” (Nature Communications, 2021)

Test system: growth of yeast strains under 51 stress conditions
Experiment: Growth assays in 51 stress conditions (Fig. 1E-F, S2D, S5B)
Format: cell-based, Saccharomyces cerevisiae
Set-up: key to Growth (Fig. S2D) / growth of ABP1 SH3-swapped strains in stress condition: log2 colony size, average of median per strain (growth score)
Details: for relative_to_wt, D_minus_WT / relative_to_wt, KO_minus_WT: Bathophenanthroline 0.1uM, log2 colony size, 74 h at 37 °C, n = 12; for relative_to_wt, D_minus_WT: D = SH3 deletion (all SH3s deleted for multi-SH3 proteins); for relative_to_wt, KO_minus_WT: KO = gene deletion; for Growth (Fig. S2D): ABP1 SH3-swapped strains
Method: All WT, SH3-deleted, KO (except for CDC25 which is the only essential SH3-containing gene in yeast), ABP1 SH3-swapped, and SLA1 SH3-shuffled strains were grown on omnitrays in 1536 formats and robotically manipulated with a pin tool (the DHFR F[1,2] bait strains were used except for the KO strains). Each strain was randomly positioned in 6 replicates per plate and two plates per condition were performed, for 12 replicates per strain in total. A border of two rows and two columns of WT strains (BY4741) around the plate was used to remove border effects. Strains were grown on YPD media for two days at 30 °C. They were then replicated on 51 different media that are described in the Supplementary Table 3 and were incubated at 37 °C in a spImager custom platform with images acquired every two hours for four days. The colony sizes from plate pictures were also measured with the R package “Gitter” and the output was manually inspected. Positions with an abnormality in colony circularity were removed. The colony sizes after 74 h of incubation at 37 °C were log2 transformed and used for the analyses. First, the differences between the two plate replicates were corrected to remove plate effects. The median colony size was calculated for each strain per plate. Strains with a difference in their median colony size of more than two between the two plate replicates were removed. Finally, the average of the median colony size was calculated for each strain per condition (growth score).

B1: ABP1: yeast SH3-containing protein; SH3-deleted (D) or gene-deleted (KO) strain (protein, UniProt P15891 2-592, looked up)
Actin-binding protein: ALEPIDYTTHSREIDAEYLKIVRGSDPDTTWLIISPNAKKEYEPESTGSSFHDFLQLFDETKVQYGLARVSPPGSDVEKIIIIGWCPDSAPLKTRASFAANFAAVANNLFKGYHVQVTARDEDDLDENELLMKISNAAGARYSIQTSSKQQGKASTPPVKKSFTPSKSPAPVSKKEPVKTPSPAPAAKISSRVNDNNDDDDWNEPELKERDFDQAPLKPNQSSYKPIGKIDLQKVIAEEKAKEDPRLVQKPTAAGSKIDPSSDIANLKNESKLKRDSEFNSFLGTTKPPSMTESSLKNDDDKVIKGFRNEKSPAQLWAERKAKQNSGNAETKAEAPKPEVPEDEPEGEPDVKDLKSKFEGLAASEKEEEEMENKFAPPPKKSEPTIISPKPFSKPQEPVKAEEAEQPKTDYKKIGNPLPGMHIEADNEEEPEENDDDWDDDEDEAAQPPLPSRNVASGAPVQKEEPEQEEIAPSLPSRNSIPAPKQEEAPEQAPEEEIEEEAEEAAPQLPSRSSAAPPPPPRRATPEKKPKENPWATAEYDYDAAEDNELTFVENDKIINIEFVDDDWWLGELEKDGSKGLFPSNYVSLGN
size (colony size) (Abp1 SH3 swaps (FigS2D), SC pH6, Plate 1, Time 74, Rep 1, one colony): 2065
relative_to_wt, D_minus_WT: 0.05618
relative_to_wt, KO_minus_WT: -0.004019
Growth (Fig. S2D) (Bathophenanthroline.0.1uM): 10.7819
Growth (Fig. S2D) (Bathophenanthroline.10uM): 10.707
Growth (Fig. S2D) (Bathophenanthroline.1uM): 10.7137
Growth (Fig. S2D) (CaCl2.100mM): 10.7891
Growth (Fig. S2D) (CaCl2.250mM): 10.7489
Growth (Fig. S2D) (CaCl2.500mM): 10.224
Growth (Fig. S2D) (Caffein.10mM): 10.0464
Growth (Fig. S2D) (CdCl2.10uM): 10.9024
Growth (Fig. S2D) (CdCl2.50uM): 10.1243
Growth (Fig. S2D) (CuSO4.1mM): 10.685
Growth (Fig. S2D) (CuSO4.5mM): 8.504
Growth (Fig. S2D) (Cycloheximide.0.05.uM): 11.0798
Growth (Fig. S2D) (Cycloheximide.0.2.uM): 10.7165
Growth (Fig. S2D) (Cycloheximide.0.5.uM): 10.6015
Growth (Fig. S2D) (DMSO.2.): 11.0276
Growth (Fig. S2D) (DMSO.6.): 10.032
Growth (Fig. S2D) (DMSO.8.): 9.2108
Growth (Fig. S2D) (Ethanol.2.): 10.8119
Growth (Fig. S2D) (Ethanol.6.): 10.4593
Growth (Fig. S2D) (Ethanol.8.): 10.4305
Growth (Fig. S2D) (Galactose.2.): 10.8275
Growth (Fig. S2D) (Glycerol.2.): 10.3524
Growth (Fig. S2D) (Hydroxyurea.25mM): 10.8959
Growth (Fig. S2D) (Hygromycin.190uM): 10.9986
Growth (Fig. S2D) (Hygromycin.19uM): 10.9797
Growth (Fig. S2D) (Hygromycin.95uM): 11.0235
Growth (Fig. S2D) (MMS.0.004.): 10.9969
Growth (Fig. S2D) (MMS.0.02.): 10.8642
Growth (Fig. S2D) (MMS.0.04.): 10.3851
Growth (Fig. S2D) (Menadione.100uM): 10.5759
Growth (Fig. S2D) (Menadione.200uM): 10.5046
Growth (Fig. S2D) (Menadione.50uM): 10.8116
Growth (Fig. S2D) (NaCl.0.25M): 10.7355
Growth (Fig. S2D) (NaCl.1M): 10.3236
Growth (Fig. S2D) (Nitroquinoline.10uM): 10.7675
Growth (Fig. S2D) (Nitroquinoline.50uM): 10.7265
Growth (Fig. S2D) (Nystatin.0.01uM): 11.043
Growth (Fig. S2D) (Nystatin.0.1uM): 11.0609
Growth (Fig. S2D) (Raffinose.2.): 10.9185
Growth (Fig. S2D) (Rapamycin.10nM): 10.1065
Growth (Fig. S2D) (Rapamycin.50nM): 9.408
Growth (Fig. S2D) (SC.pH3): 10.3986
Growth (Fig. S2D) (SC.pH6): 11.0415
Growth (Fig. S2D) (SDS.0.01.): 10.9914
Growth (Fig. S2D) (SDS.0.02.): 10.9706
Growth (Fig. S2D) (SDS.0.05.): 10.8264
Growth (Fig. S2D) (Sorbitol.10mM): 10.9836
Growth (Fig. S2D) (Sorbitol.1mM): 10.9924
Growth (Fig. S2D) (Sorbitol.5mM): 10.9128

B2: BBC1: yeast SH3-containing protein; SH3-deleted or knockout strain (protein, UniProt P47068 1-1157, looked up)
Myosin tail …: MSEPEVPFKVVAQFPYKSDYEDDLNFEKDQEIIVTSVEDAEWYFGEYQDSNGDVIEGIFPKSFVAVQGSEVGKEAESSPNTGSTEQRTIQPEVEQKDLPEPISPETKKETLSGPVPVPAATVPVPAATVPVPAATAVSAQVQHDSSSGNGERKVPMDSPKLKARLSMFNQDITEQVPLPKSTHLDLENIPVKKTIVADAPKYYVPPGIPTNDTSNLERKKSLKENEKKIVPEPINRAQVESGRIETENDQLKKDLPQMSLKERIALLQEQQRLQAAREEELLRKKAKLEQEHERSAVNKNEPYTETEEAEENEKTEPKPEFTPETEHNEEPQMELLAHKEITKTSREADEGTNDIEKEQFLDEYTKENQKVEESQADEARGENVAEESEIGYGHEDREGDNDEEKEEEDSEENRRAALRERMAKLSGASRFGAPVGFNPFGMASGVGNKPSEEPKKKQHKEKEEEEPEQLQELPRAIPVMPFVDPSSNPFFRKSNLSEKNQPTETKTLDPHATTEHEQKQEHGTHAYHNLAAVDNAHPEYSDHDSDEDTDDHEFEDANDGLRKHSMVEQAFQIGNNESENVNSGEKIYPQEPPISHRTAEVSHDIENSSQNTTGNVLPVSSPQTRVARNGSINSLTKSISGENRRKSINEYHDTVSTNSSALTETAQDISMAAPAAPVLSKVSHPEDKVPPHPVPSAPSAPPVPSAPSVPSAPPVPPAPPALSAPSVPPVPPVPPVSSAPPALSAPSIPPVPPTPPAPPAPPAPLALPKHNEVEEHVKSSAPLPPVSEEYHPMPNTAPPLPRAPPVPPATFEFDSEPTATHSHTAPSPPPHQNVTASTPSMMSTQQRVPTSVLSGAEKESRTLPPHVPSLTNRPVDSFHESDTTPKVASIRRSTTHDVGEISNNVKIEFNAQERWWINKSAPPAISNLKLNFLMEIDDHFISKRLHQKWVVRDFYFLFENYSQLRFSLTFNSTSPEKTVTTLQERFPSPVETQSARILDEYAQRFNAKVVEKSHSLINSHIGAKNFVSQIVSEFKDEVIQPIGARTFGATILSYKPEEGIEQLMKSLQKIKPGDILVIRKAKFEAHKKIGKNEIINVGMDSAAPYSSVVTDYDFTKNKFRVIENHEGKIIQNSYKLSHMKSGKLKVFRIVARGYVGW
relative_to_wt, D_minus_WT: -0.7326
relative_to_wt, KO_minus_WT: -0.7845
Growth (Fig. S2D) (Bathophenanthroline.0.1uM): 10.8555
Growth (Fig. S2D) (Bathophenanthroline.10uM): 10.7329
Growth (Fig. S2D) (Bathophenanthroline.1uM): 10.8406
Growth (Fig. S2D) (CaCl2.100mM): 10.8635
Growth (Fig. S2D) (CaCl2.250mM): 10.7473
Growth (Fig. S2D) (CaCl2.500mM): 10.2321
Growth (Fig. S2D) (Caffein.10mM): 10.0361
Growth (Fig. S2D) (Caffein.2mM): 11.0328
Growth (Fig. S2D) (CdCl2.100uM): 9.446
Growth (Fig. S2D) (CdCl2.10uM): 10.9111
Growth (Fig. S2D) (CdCl2.50uM): 9.87
Growth (Fig. S2D) (CuSO4.1mM): 10.4195
Growth (Fig. S2D) (CuSO4.5mM): 7.7318
Growth (Fig. S2D) (Cycloheximide.0.05.uM): 11.1604
Growth (Fig. S2D) (Cycloheximide.0.2.uM): 10.7217
Growth (Fig. S2D) (Cycloheximide.0.5.uM): 10.1165
Growth (Fig. S2D) (DMSO.2.): 11.0262
Growth (Fig. S2D) (DMSO.6.): 9.821
Growth (Fig. S2D) (DMSO.8.): 9.042
Growth (Fig. S2D) (Ethanol.2.): 10.863
Growth (Fig. S2D) (Ethanol.6.): 10.43
Growth (Fig. S2D) (Ethanol.8.): 10.2184
Growth (Fig. S2D) (Galactose.2.): 10.7901
Growth (Fig. S2D) (Glycerol.2.): 9.731
Growth (Fig. S2D) (Hydroxyurea.25mM): 10.7777
Growth (Fig. S2D) (Hygromycin.190uM): 11.0445
Growth (Fig. S2D) (Hygromycin.19uM): 11.0769
Growth (Fig. S2D) (Hygromycin.95uM): 11.0543
Growth (Fig. S2D) (MMS.0.004.): 10.9787
Growth (Fig. S2D) (MMS.0.02.): 10.743
Growth (Fig. S2D) (MMS.0.04.): 9.98
Growth (Fig. S2D) (Menadione.100uM): 10.5737
Growth (Fig. S2D) (Menadione.200uM): 10.4364
Growth (Fig. S2D) (Menadione.50uM): 10.8865
Growth (Fig. S2D) (NaCl.0.25M): 10.7759
Growth (Fig. S2D) (NaCl.1M): 9.566
Growth (Fig. S2D) (Nitroquinoline.10uM): 10.676
Growth (Fig. S2D) (Nitroquinoline.50uM): 10.6106
Growth (Fig. S2D) (Nystatin.0.01uM): 10.9601
Growth (Fig. S2D) (Nystatin.0.1uM): 11.003
Growth (Fig. S2D) (Raffinose.2.): 11.0344
Growth (Fig. S2D) (Rapamycin.10nM): 9.767
Growth (Fig. S2D) (Rapamycin.50nM): 9.406
Growth (Fig. S2D) (SC.pH3): 10.4328
Growth (Fig. S2D) (SC.pH6): 11.0565
Growth (Fig. S2D) (SDS.0.01.): 11.0008
Growth (Fig. S2D) (SDS.0.02.): 11.0385
Growth (Fig. S2D) (SDS.0.05.): 10.9076
Growth (Fig. S2D) (Sorbitol.10mM): 11.0218
Growth (Fig. S2D) (Sorbitol.1mM): 10.99
Growth (Fig. S2D) (Sorbitol.5mM): 10.8909
